According to patent publication EP4553085A1 (Hangzhou Sumgen Biotech Co., Ltd., dated 2025):
Substitutions are numbered along the chain they refer to.

B1: chimeric antibody 1A2-7 (antibody, V domains shown)
VH: QVQLQQPGAELVKPGASVKLSCKASGYTFTSYWMHWVKQRPGQGLEWIGEINPSNGRTNYNEKFKSKATLTVDKSSSTAYMQLNSLTSEDSAVYYCARDRYDEGNAMDYWGQGTSVTVSS
VL: DIVMTQTTSSLSASLGDRVTISCRASQDITNYLNWYQQKPDGTVKLLIYYTSRLHSGVPSRFSGSGSGTDYSLTISNLEQEDIATYFCQQGDTLPRTFGGGTKLEIK
B2: chimeric antibody 3G9-1 (antibody, V domains shown)
VH: QVQLQQPGAELVKPGASVKLSCKASGYTFTSYWMHWVKQRPGQGLEWIGEINPSNGRTNYNEKFKSKATLIVDKSSSTAYMQLSSLTSEDSAVYYCARGIYYGYDYAMDYWGQGTSVTVSS
VL: B1 VL with V3Q, Q6H, T30S, D92N, R96P
B3: chimeric antibody 3A2-18 (antibody, V domains shown)
VH: B1 VH with Q1E, M81V
VL: B1 VL
B4: chimeric antibody 5E11-2 (antibody, V domains shown)
VH: EVKLEESGGGLVQPGGSMKLSCAASGFTFSDAWMDWVRQSPEKGLEWVAEIRSKPNNHATYYAESVKGRFTISRDDSKSSVYLQMNSLRAEDTGIYYCTRTTDYSMDYWGQGTSVTVSS
VL: DIQMTQSPASLAVSLGQRATISCRASQSVSASSYSYMHWYQQKPGQPPKLLIKYASNLQSGVPARFSGSGSGTDFTLNIHPVEEEDSATYYCQHSWEIPRTFGGGTKLEIK

These binders were tested against T1, Human LILRB4/CD85k/ILT3 Protein (ECD, His Tag), Sino Biological (human, UniProt Q8NHJ6 22-259) (assay: ELISA, coated LILRB4 ECD-His).
T1 construct: extracellular domain; Bought protein; it is not tied to this bought protein; also called LILRB4 protein; not shown: His tag

| binding result | Binder |
| --- | --- |
| binds | B1 |
| binds | B2 |
| binds | B3 |
| binds | B4 |
